Drawing on PMC7619190 (2026), this text covers Kd for 1 molecule.

By Kd is commonly meant the constant that tells how readily two partners part at equilibrium.

The assay has as its target human SRC SH2 domain (Gln147-Lys252), wild type (human, UniProt P12931-1 147-252). The assay can be described thus: ITC; SH2 pretreated with 1 mM TCEP. A general note: Isothermal titration calorimetry measures the heat released or taken up as one component is titrated into another.

Where no end group is shown, it is not given here. [ ]: non-standard residue; d: D form. pY = N[C@@H](Cc1ccc(OP(=O)(O)O)cc1)C(=O)O

As for EPQ[pY]EEIP [optimized SRC binding phosphopeptide (EPQpYEEIP)], the equilibrium dissociation constant (Kd) is 293 nM.
